The source of these data is US8642555B2, “Prodrugs” (KTB Tumorforschungsgesellschaft mbH, priority 2009, dated 2014).

Numbered stars: 1 amine (or outer) side, 2 acyl side, 3 side chain; on linkers, the order of the positions; unused ones are H or OH. Square brackets hold non-standard residues; d marks the D form. Peptide text beside a SMILES is read from it. * marks the point of attachment. ξ: configuration not given here. X1 = COc1cccc2c1C(=O)c1c(O)c3c(c(O)c1C2=O)C[C@@](O)(C(=O)CO)CC3O[C@H]1C[C@@H](N*)C(O)[C@H](C)O1; Hexanoyl(6-maleimido) = O=C1C=CC(=O)N1CCCCCC(=O)*; PABC = O=C(OCc1ccc(N[*:1])cc1)[*:2]; ξY = NC(Cc1ccc(O)cc1)C(=O)O; ξR = N=C(N)NCCCC(N)C(=O)O; ξL = CC(C)CC(N)C(=O)O; ξS = NC(CO)C(=O)O

The conditions of data set [1]: cited from earlier work.
For data set [2] the following is noted: in vivo; cited from earlier work.

In the case of `COc1cccc2c1C(=O)c1c(O)c3c(c(O)c1C2=O)CC(O)(C(=O)CO)CC3OC1CC(NC(=O)C(CCCNC(=N)N)NC(=O)C(N)CO)C(O)C(C)O1` (stereo not drawn) [Ser-Arg-DOXO], the “half-life of liberation of free doxorubicin from the dipeptide” value in data set [1] is listed as > 48 h. On to `COc1cccc2c1C(=O)c1c(O)c3c(c(O)c1C2=O)C[C@@](O)(C(=O)CO)CC3O[C@H]1C[C@@H](NC(=O)OCc2ccc(NC(=O)C(CC(C)C)NC(=O)C(CO)NC(=O)C(Cc3ccc(O)cc3)NC(=O)C(Cc3ccc(O)cc3)NC(=O)C(CO)NC(=O)C(CO)NC(=O)C(CCCNC(=N)N)NC(=O)CCCCCN3C(=O)C=CC3=O)cc2)C(O)[C@H](C)O1` (stereo partly drawn) [compound 6, EMC-Arg-Ser-Ser-Tyr-Tyr-Ser-Leu-PABC-DOXO] ({Hexanoyl(6-maleimido)}-[ξR][ξS][ξS][ξY][ξY][ξS][ξL][PABC]-X1), for which the water-solubility entry in the data set “Water-solubility” was “excellent water-solubility”. On the same count and under the same terms, to `CC(=O)O[C@H]1C(=O)[C@@]2(C)C([C@H](OC(=O)c3ccccc3)[C@]3(O)C[C@H](OC(=O)[C@H](OC(=O)OCc4ccc(NC(=O)C(CC(C)C)NC(=O)C(CO)NC(=O)C(Cc5ccc(O)cc5)NC(=O)C(Cc5ccc(O)cc5)NC(=O)C(CO)NC(=O)C(CO)NC(=O)C(CCCNC(=N)N)NC(=O)CCCCCN5C(=O)C=CC5=O)cc4)[C@@H](NC(=O)c4ccccc4)c4ccccc4)C(C)=C1C3(C)C)[C@]1(OC(C)=O)CO[C@@H]1C[C@@H]2O` (stereo partly drawn) [compound 10, EMC-Arg-Ser-Ser-Tyr-Tyr-Ser-Leu-PABC-Paclitaxel] belongs “excellent water-solubility”. Consider albumin, for which the “half-life in the systemic circulation” value in data set [2] is “up to 19 days”.
